As usually defined, the EC50 (read off the curve) is the concentration at which the effect is half-maximal. Read a high EC50 (read off the curve) as lower potency in that assay. The Kd is the free concentration of one partner at which half of the binding sites on the other are occupied at equilibrium, for simple one-to-one binding.

Substitutions are numbered along the chain they refer to.

We go through seven molecules from patent US20220195047A1 (TCRCURE BIOPHARMA, published 2022).

For assay [1], the target named is T1, human PD-1 protein (hPD-1) on cell surface of 293T-PD-1 cells (human, UniProt Q15116 25-287).
T1 construct: Human PD-1 expressed in HEK293T cells, either by lentiviral transduction or by the pCMV6-ENTRY PDCD1 cDNA RC210364; also called PDCD1 (RC210364) in HEK293T cells
T1 sequence (Q15116 25-287 limits assumed): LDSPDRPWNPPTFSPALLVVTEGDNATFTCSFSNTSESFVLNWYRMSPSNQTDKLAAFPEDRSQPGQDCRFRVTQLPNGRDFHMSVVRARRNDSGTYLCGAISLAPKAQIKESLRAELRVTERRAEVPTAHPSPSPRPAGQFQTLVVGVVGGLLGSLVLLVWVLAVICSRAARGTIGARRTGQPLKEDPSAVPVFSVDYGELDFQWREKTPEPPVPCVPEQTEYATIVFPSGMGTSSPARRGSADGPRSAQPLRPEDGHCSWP
Nature of the assay: flow cytometry on 293T-PD-1 cells, 4 C for 60 min, secondary FITC-anti-Mouse IgG F(ab')2; y axis hPD-1%. The protocol:
(§1) The cells were then stained with a secondary antibody (APC-anti-Hu IgG Fc for humanized antibodies and FITC-anti-Mouse IgG F(ab′)2 for F02) for 30 minutes (1:50), followed by flow cytometric analysis. The results were analyzed through Prism 7 and Kd values were determined by the program.
A general note: Flow cytometry measures light scatter and fluorescence of single cells or particles in a stream.

Assay [2] concerns the target T2, recombinant biotinylated human PD-1 (human, UniProt Q15116 25-170, limits assumed, biotinylated (site not stated)).
T2 construct: also called rhPD-1; recombinant human PD-1 protein
Put plainly: ELISA, antibody coated, biotinylated rhPD-1 titrated, Sav-HRP detection. The protocol:
5 μg/ml of anti-PD1 antibody in 100 μl coating buffer was coated in the microwells at 4° C. overnight. By following the ELISA procedure, a 5-fold serial dilution of recombinant biotinylated human PD-1 was added to the assay plate pre-coated with anti-PD1 antibodies. The bound human PD-1 protein was then detected with Sav-HRP reagent. The results were analyzed through Prism 7 and Kd values were determined by the program.
In general terms: An ELISA detects its analyte on a solid surface through an enzyme-linked reagent.

Assay [3] concerns the target T1, human PD-1 protein (hPD-1) on cell …. Put plainly: flow cytometry on 293T-PD-1 cells. The protocol: as §1
For assay [4] the target is unchanged. Put plainly: flow cytometry on 293T-PD-1 cells, 4 C for 60 min, secondary APC-anti-Hu IgG Fc; y axis hPD-1%. The protocol:
as §1

T2 sequence (Q15116 25-170 limits assumed): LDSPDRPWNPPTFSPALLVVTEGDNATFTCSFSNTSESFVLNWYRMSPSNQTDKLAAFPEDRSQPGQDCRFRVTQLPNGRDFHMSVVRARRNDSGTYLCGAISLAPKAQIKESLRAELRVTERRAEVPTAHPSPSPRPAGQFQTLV

B1: F02 anti-PD-1 antibody (antibody, V domains shown)
VH: QQPGAELVKPGASVKLSCRASGYTFTNYYLYWVKQRPGQGLEWIGGINPSNGGTNFNEKFRGKATLTVDKSSSTAYMQLSSLTSEDSAVYFCTRRDYNYDGGFDYWGQGSTLTVSS
VL: DIVLTQSPASLAVSLGQRATISCRASKSVSTSGFNYMHWYQQKPGQPPKLLIYLASNLDSGVPARFSGSGSGTDFTLNIHPVEEEDAATYYCQHGRELPLTFGAGTKLELRR
notes: Mouse monoclonal antibody from hybridoma clone #11, detected with anti-mouse IgG F(ab')2; Only the variable domains are tied to F02; also called anti-PD-1 antibody from hybridoma clone #11; clone #11
Consider B1, for which the “EC50 (read off the curve)” value in assay [1] was around 0.01 µg/mL. For the same molecule, the Kd in assay [2] was found to be 0.14 nM; in assay [3], 0.07 nM.

B2: h11 anti-PD-1 antibody (antibody, V domains shown)
VH: QVQLVQSGAEVKKPGASVKVSCKASGYTFTNYYMYWVRQAPGQGLEWIGGINPSNGGTNFNEKFKNKATMTVDKSTSTAYMELSSLRSEDTAVYYCTRRDYNYDGGFDYWGQGTLVTVSS
VL: DIVLTQSPATLSLSPGERATLSCRASKSVSTSGFNYMHWYQQKPGQAPRLLIFLASNLASGVPARFSGSGSGTDFTLTISSLEPEDFAVYYCQHGRELPLTFGQGTKLEI
notes: Humanized antibody derived from F02, detected with anti-human IgG Fc; also called hl 1
With B2, in assay [4], the “EC50 (read off the curve)” value is around 0.07 µg/mL. Also, the Kd in assay [2] was found to be 0.29 nM; in assay [3] it was 0.55 nM.

B3: Ab5 anti-PD-1 antibody (antibody, V domains shown)
VH: QVQLQQSGAEVKKPGSSVKVSCKASGYTFTNYYLYWVRQAPGQGLEWIGGINPSNGGTNFNEKFRGRVTITADESSTTAYMELSSLRSEDTAFYFCTRRDYNYDGGFDYWGQGTTVTVSS
VL: DIVMTQSPSSLSASVGDRVTITCRASKSVSTSGFNYMHWYQQTPGKAPKLLIYLASNLDSGVPARFSGSGSGTDFTFTISSLQEEDIATYYCFHGRELPLTFGQGTKLQITR
notes: Humanized antibody, detected with anti-human IgG Fc
As to B3, the “EC50 (read off the curve)” value in assay [4] is around 0.5 µg/mL. In assay [3], this molecule yielded a Kd of 3.69 nM.

B4: Ab8 anti-PD-1 antibody (antibody, V domains shown)
VH: B3 VH with Q1E, Q6E, I48M, S76T, T77S, F93V, F95Y, T97A
VL: DIVMTQSPDSLAVSLGERATINCRASKSVSTSGFNYMHWYQQKPGQPPKLLIYLASNLDSGVPDRFSGSGSGTDFTLTIRPLQAEDVAVYYCQHGRELPLTFGQGTKLEIK
notes: as for B3
As to B4, the “EC50 (read off the curve)” value in assay [4] is around 0.1 µg/mL. For the same molecule, the Kd in assay [2] was determined as 0.32 nM; in assay [3] it was 0.65 nM.

B5: Ab4 anti-PD-1 antibody (antibody, V domains shown)
VH: B3 VH
VL: B3 VL with V3Q
notes: as for B3
For the molecule B5, the “EC50 (read off the curve)” value in assay [4] was around 3 µg/mL. For the same molecule, the Kd in assay [3] worked out at 41 nM.

B6: Ab2 anti-PD-1 antibody (antibody, V domains shown)
VH: B3 VH
VL: B3 VL with V3Q, A64S, E84P
notes: as for B3
For B6, the “EC50 (read off the curve)” value in assay [4] is around 0.4 µg/mL. Binding in assay [3] was put at a Kd of 3.24 nM.

B7: Ab7 anti-PD-1 antibody (antibody, V domains shown)
VH: B3 VH with K23R
VL: B3 VL
notes: as for B3
As for B7, in assay [4], the “EC50 (read off the curve)” value was around 0.3 µg/mL. Also, the Kd in assay [2] amounted to 0.68 nM; in assay [3], 2.3 nM.
